According to patent US20140147868A1 (published 2014):
Positions of bridges follow the written chain, without caps; N, C: chain ends. No end group written: not given here.

B5: monoclonal antibody TC2 (antibody, mouse IgG1, V domains shown)
VH: QVQLKQSGPGLLQPSQSLSITCTVSGFSLTYYGVHWVRQSPVKGLEWLGVIWSGGDTDYDTTFISRLSISKDNSKGQVFFKMTSLQTDDTAIYYCARGRTYGIHFDYWGQGTTLTVSS
VL: DIVMSQSPSSLAVSVGEKVTMSCKSSQSLFNSRTRKNYLAWYQQKPGQSPKVLIYWASTRESGVPDRFTGSGSGTDFTLTISSVQAEDLAIYYCKQFYDLWTFGGGTKLEIKR
notes: also called mAb TC2; ECACC 02110742

Tests used:
[1] = biological target: T1, monoclonal antibody 3C4; experiment: phage ELISA, coated mAb 3C4, 10^9 phagemid per well
T1 construct: also called mAb 3C4; 3C4 (3CY)
Method: (§1) Microtitre plates were coated with 100 μL, 1 μg/mL mAb 3C4 or unrelated control antibody in PBS over night at 4 C. Remaining binding sites were blocked with 20 mg/mL bovine serum albumin (BSA) in PBS for 1 h. Some wells were only coated with BSA. Monoclonal packaged phagemids were added at a concentration of 10¹⁰ to 10⁸ cfu per well in PBS and incubated for 1 h. Preparations of packaged phagemids were centrifuged to remove aggregates. Wells were washed 6 times with PBS containing 0.1% Tween-20 and 3 times with PBS. For detection of bound phages 100 μL of horse-radish peroxidase (HRP) conjugated anti-[…] antibody (e.g. Pharmacia) diluted 1/5000 in PBS was added to each well and incubated for 1 h at ambient temperature. ELISA plates were washed 5 times with PBS containing 0.1% Tween-20 and 3 times with PBS. The chromogenic substrate o-Phenyldiamine in citric acid, pH 4.0 supplemented with H₂O₂ was added and the color generating reaction was stopped after 2-5 min by addition of 2 M H₂SO₄.
Target sequence in this assay (VH, as listed by the source, chain 1 of 2): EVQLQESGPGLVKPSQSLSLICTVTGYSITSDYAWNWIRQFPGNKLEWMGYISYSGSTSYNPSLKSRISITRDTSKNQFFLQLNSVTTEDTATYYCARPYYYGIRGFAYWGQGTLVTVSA
Target sequence in this assay (VL, as listed by the source, chain 2 of 2): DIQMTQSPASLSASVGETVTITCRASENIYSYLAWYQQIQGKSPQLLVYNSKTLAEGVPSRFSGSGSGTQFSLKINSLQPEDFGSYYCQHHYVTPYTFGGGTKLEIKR

[2] = biological target: T1, monoclonal antibody 3C4; experiment: SPR, 3C4 immobilised, phagemid injected
Method: (§2) The carboxylated surface of the a dextran coated CM5 chip (Biacore, Sweden) was activated according to protocol supplied by the manufacturer. In short 0.05M N-hydroxysuccinimide (NHS)/0.2 M N-ethyl-N′-[3-(dimethylamino)propyl]carbodiimide hydrochloride (EDC), was injected over the carboxylated chip at 10 μL/min for 7 min, then 50 μg/mL rabbit anti-mouse IgG polyclonal antibody in 10 mM acetate buffer, pH 5.0 is injected at 10 μL/min for 7 min, and finally the chip is blocked by injection of 1 M ethanolamine at 10 μL/min for 7 min. Immobilization of mouse monoclonal antibodies on the dextran coated chip was performed in the same way.
(§3) Antibodies were covalently immobilized on a dextran coated CM5 chip as described in Example 2. Phages were diluted 10-fold in HBS-EP and injected at 10 μL/min for 3 min. The amounts of phagemid bound was recorded in real time and expressed in response units (RU). To evaluate blocking by holoTC, 1 μM of holoTC was injected at 10 μL/min for 5 min prior to the injection of phagemids at 10 μL/min for 3 min. Inhibition was computed as the number of RU of phagemid bound to 3C4 with pretreatment with holoTC divided with the number of RU bound without pretreatment, times 100.
Target sequence in this assay (VH, as listed by the source, chain 1 of 2): as the sequence (VH, as listed by the source, chain 1 of 2) above
Target sequence in this assay (VL, as listed by the source, chain 2 of 2): as the sequence (VL, as listed by the source, chain 2 of 2) above

[3] = biological target: T1, monoclonal antibody 3C4; experiment: SPR, inhibition of phagemid binding to 3C4 by 1 uM holoTC (competitor)
Method: as §2, §3
Target sequence in this assay (VH, as listed by the source, chain 1 of 2): as the sequence (VH, as listed by the source, chain 1 of 2) above
Target sequence in this assay (VL, as listed by the source, chain 2 of 2): as the sequence (VL, as listed by the source, chain 2 of 2) above

[4] = biological target: T1, monoclonal antibody 3C4; experiment: phage ELISA, coated mAb 3C4, 10^8 phagemid per well
Method: as §1
Target sequence in this assay (VH, as listed by the source, chain 1 of 2): as the sequence (VH, as listed by the source, chain 1 of 2) above
Target sequence in this assay (VL, as listed by the source, chain 2 of 2): as the sequence (VL, as listed by the source, chain 2 of 2) above

[5] = biological target: T1, monoclonal antibody 3C4; experiment: phage ELISA, coated mAb 3C4, 10^10 phagemid per well
Method: as §1

[6] = biological target: T1, monoclonal antibody 3C4; experiment: SPR, phagemid bound to 3C4 after 1 uM holoTC (competitor)
Method: as §2, §3
Target sequence in this assay (VH, as listed by the source, chain 1 of 2): as the sequence (VH, as listed by the source, chain 1 of 2) above
Target sequence in this assay (VL, as listed by the source, chain 2 of 2): as the sequence (VL, as listed by the source, chain 2 of 2) above

[7] = biological target: T2, human holotranscobalamin (holoTC) (human, UniProt P20062 19-427, cobalamin bound (holo form, non-covalent)); experiment: SPR, scFv injected over immobilised holoTC
T2 construct: Recombinant human holoTC in the SPR work; also called holo-TCII
T2 chain: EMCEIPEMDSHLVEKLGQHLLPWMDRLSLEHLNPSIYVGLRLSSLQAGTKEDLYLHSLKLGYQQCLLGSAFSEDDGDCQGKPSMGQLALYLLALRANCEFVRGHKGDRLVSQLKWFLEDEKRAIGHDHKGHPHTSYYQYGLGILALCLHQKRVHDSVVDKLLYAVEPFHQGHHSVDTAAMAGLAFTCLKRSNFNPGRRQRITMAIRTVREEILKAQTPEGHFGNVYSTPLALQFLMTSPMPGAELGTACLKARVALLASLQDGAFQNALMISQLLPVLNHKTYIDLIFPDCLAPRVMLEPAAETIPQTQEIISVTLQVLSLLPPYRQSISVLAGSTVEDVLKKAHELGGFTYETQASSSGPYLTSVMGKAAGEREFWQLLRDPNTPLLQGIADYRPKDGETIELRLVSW
Method: Selected scFv antibodies were evaluated by surface plasmon resonance essentially as described in Example 2. Purified antibody preparations were injected over a chip with immobilized holoTC. The holoTC chip was prepared by binding holoTC to a chip prepared as described in 2.1 or by binding biotinylated holoTC on a streptavidin coated SA chip (Biacore, Sweden).

[8] = biological target: T2, human holotranscobalamin (holoTC); experiment: SPR (BIAcore), scFv immobilised
[9] = biological target: T3, human apotranscobalamin (apoTC) (human, UniProt P20062 19-427); experiment: SPR (BIAcore), scFv immobilised; head read as 10^-4
T3 construct: Same chain as holoTC without cobalamin; also called apo-TCII
T3 chain: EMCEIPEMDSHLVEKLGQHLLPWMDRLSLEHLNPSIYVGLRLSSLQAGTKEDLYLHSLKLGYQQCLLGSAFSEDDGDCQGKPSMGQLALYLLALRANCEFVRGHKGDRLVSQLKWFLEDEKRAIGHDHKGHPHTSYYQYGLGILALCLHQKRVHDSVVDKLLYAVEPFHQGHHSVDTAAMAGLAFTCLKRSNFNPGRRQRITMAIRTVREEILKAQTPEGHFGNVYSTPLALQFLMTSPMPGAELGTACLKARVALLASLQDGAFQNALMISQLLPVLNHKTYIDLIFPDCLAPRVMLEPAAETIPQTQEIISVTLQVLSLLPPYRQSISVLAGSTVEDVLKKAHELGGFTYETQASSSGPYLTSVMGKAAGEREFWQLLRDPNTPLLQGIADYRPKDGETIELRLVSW

[10] = biological target: T2, human holotranscobalamin (holoTC); experiment: as above
[11] = biological target: T1, monoclonal antibody 3C4; experiment: SPR, mAb 3C4 immobilised, phagemid injected
Method: as §2, §3
Target sequence in this assay (VH, as listed by the source): as the sequence (VH, as listed by the source, chain 1 of 2) above

[12] = biological target: T4, monoclonal antibody 3-9; experiment: SPR, mAb 3-9 immobilised, phagemid injected
T4 construct: Antibody from State University of New York; also called mAb 3-9
Method: as §2, §3

[13] = biological target: T2, human holotranscobalamin (holoTC); experiment: SPR; holoTC against apoTC
[14] = biological target: T2, human holotranscobalamin (holoTC); experiment: SPR (Biacore); Kd values for holoTC
[15] = biological target: T3, human apotranscobalamin (apoTC); experiment: SPR (BIAcore), antibody immobilised; head read as 10^-4
[16] = biological target: T2, human holotranscobalamin (holoTC); experiment: as above
[17] = biological target: T3, human apotranscobalamin (apoTC); experiment: SPR (BIAcore), antibody immobilised
[18] = biological target: T2, human holotranscobalamin (holoTC); experiment: SPR (BIAcore), antibody immobilised
[19] = biological target: T2, human holotranscobalamin (holoTC); experiment: SPR (Biacore), mAb on chip, TC injected
[20] = biological target: B5; experiment: SPR, mAb immobilised, phagemid injected (Table 5; 1 RU)
Method: as §2, §3

CSGLYPWDMFRCS (disulfide 1-12 (inferred); also: displayed on phage (phagemid)) [phagemid CS1-9p (phage-displayed disulfide cyclized 13 mer peptide)]
ELISA (absorbance units) [1]: 0.539 absorbance units | Phage bound (RU) [2]: 35 RU | Inhibition (%) [3]: 87% | ELISA (absorbance units) [4]: 0.259 absorbance units | ELISA (absorbance units) [5]: 0.769 absorbance units | Block by holoTC (RU) [6]: 1 RU

B1: mutated scFv 3C4 clone 3.9G2 (scFv)
scFv: EVQLQESGPGLVKPSLSLSLICTVTGYSIASDYTWNWIRQFPGNKLEWMGYISYSGSTSYNPSLKSRISITRDTSKNQFFLQLNSVTTEDTATYYCARPYYYGIRGFAYWGQGTLVTVSAGGGGSGGGGSGGGGSDIQMTQSPASLSASVGETVTITCRASENIYSYLAWYQQIQGKSPQLLVYNSKTLTEGVPSRFSGSGSGTQFSLKINSLQPEDFGSYYCQHHYVTPYTFGGGTKLEIKR
notes: A190T stands in the next printed row (r19)
Kd [7]: 150 nM | koff [7]: 0.00059 s⁻¹ | kon [7]: 3800 M⁻¹ s⁻¹

B2: single chain antibody fragment TC2_ScFv (scFv)
scFv: QVQLKQSGPGLLQPSQSLSITCTVSGFSLTYYGVHWVRQSPVKGLEWLGVIWSGGDTDYDTTFISRLSISKDNSKGQVFFKMTSLQTDDTAIYYCARGRTYGIHFDYWGQGTTLTVSSGGGGSGGGGSGGGGSDIVMSQSPSSLAVSVGEKVTMSCKSSQSLFNSRTRKNYLAWYQQKPGQSPKVLIYWASTRESGVPDRFTGSGSGTDFTLTISSVQAEDLAIYYCKQFYDLWTFGGGTKLEIKR
notes: A C-terminal tag may be present; also called scFv TC2
Ka [8]: 3e+06 M⁻¹ | kon [8]: 4000 M⁻¹ s⁻¹ | koff [9]: 0.0015 s⁻¹ | koff [10]: 0.0015 s⁻¹

B3: phagemid CS1-2p (phage-displayed disulfide cyclized 13 mer peptide) (peptide)
peptide: CSLFYLWDQDRCS
modifications: disulfide 1-12 (inferred); also: displayed on phage (phagemid), coat fusion not given here
ELISA (absorbance units) [1]: 0.224 absorbance units | Phage bound (RU) [2]: 4 RU | ELISA (absorbance units) [4]: 0.245 absorbance units | ELISA (absorbance units) [5]: 0.287 absorbance units

B4: phagemid CS1-31p (phage-displayed disulfide cyclized 13 mer peptide) (peptide)
peptide: CSFFYSLCYCWCS
modifications: disulfide (positions not given here); also: four Cys, disulfide pairing not given here
notes: also called CSI-31p
ELISA (absorbance units) [1]: 0.165 absorbance units | Phage bound (RU) [2]: 42 RU | phagemid bound (RU) [11]: 42 RU | phagemid bound (RU) [12]: 0 RU | Inhibition (%) [3]: 88% | ELISA (absorbance units) [4]: 0.152 absorbance units | ELISA (absorbance units) [5]: 0.298 absorbance units | Block by holoTC (RU) [6]: 5 RU

B5
holo/apo Specificity (-fold) [13]: 1 -fold | Kd [14]: 1 to 5 nM | koff [15]: 0.0015 s⁻¹ | koff [16]: 0.0004 s⁻¹ | Ka [17]: 7e+07 M⁻¹ | kon [17]: 100000 M⁻¹ s⁻¹ | Ka [18]: 2.5e+08 M⁻¹ | kon [18]: 100000 M⁻¹ s⁻¹ | Kd [19]: 1 to 5 nM

CSFRYQWDMFRCS (disulfide 1-12 (inferred); also: displayed on phage (phagemid)) [phagemid CS1-11p (phage-displayed disulfide cyclized 13 mer peptide)]
ELISA (absorbance units) [1]: 0.559 absorbance units | Phage bound (RU) [2]: 32 RU | phagemid bound (RU) [11]: 32 RU | phagemid bound (RU) [12]: 0 RU | Inhibition (%) [3]: 100% | ELISA (absorbance units) [4]: 0.348 absorbance units | ELISA (absorbance units) [5]: 0.645 absorbance units | Block by holoTC (RU) [6]: 0 RU

CSFRYLWDQDRCS (disulfide 1-12 (inferred); also: displayed on phage (phagemid)) [phagemid CS1-6p (phage-displayed disulfide cyclized 13 mer peptide)]
binding result [20]: no binding | ELISA (absorbance units) [1]: 0.664 absorbance units | Phage bound (RU) [2]: 24 RU | phagemid bound (RU) [11]: 45 RU | phagemid bound (RU) [12]: 0 RU | Inhibition (%) [3]: 88% | ELISA (absorbance units) [4]: 0.406 absorbance units | ELISA (absorbance units) [5]: 1.06 absorbance units | Block by holoTC (RU) [6]: 3 RU

CSGLYPWDYFMCS (disulfide 1-12 (inferred); also: displayed on phage (phagemid)) [phagemid CS1-29p (phage-displayed disulfide cyclized 13 mer peptide)]
ELISA (absorbance units) [1]: 0.189 absorbance units | Phage bound (RU) [2]: 20 RU | Inhibition (%) [3]: 85% | ELISA (absorbance units) [4]: 0.156 absorbance units | ELISA (absorbance units) [5]: 0.335 absorbance units | Block by holoTC (RU) [6]: 3 RU
